Two substances from patent publication US6534281 can be followed below.

The target in assay [1] is human C-peptide (human). Kind of assay: sandwich immunoassay, one-step; 9103 on particles, labeled antibody 9101.
The target of assay [2] is human proinsulin (human) (UniProt P01308). As to the kind of experiment: sandwich immunoassay, two-step, against C-peptide calibration; proinsulin 200 ng/ml; 9103 on particles, labeled antibody PEP-001.
Assay [3] concerns the target human C-peptide (human). Kind of assay: sandwich immunoassay, two-step; 9103 on particles, labeled antibody PEP-001.
Assay [4] addresses modified C-peptide (human C-peptide having Arg-Arg bound to its N-terminal and Lys-Arg bound to its C-terminal) (human). Kind of assay: sandwich immunoassay, one-step, against C-peptide calibration; modified C-peptide 5 ng/ml; 9103 on particles, labeled antibody PEP-001.
The target is the same in assay [5]. Kind of assay: sandwich immunoassay, one-step, against C-peptide calibration; modified C-peptide 5 ng/ml; 9103 on particles, labeled antibody 9101.
Assay [6] addresses human proinsulin (human) (UniProt P01308). As to the kind of experiment: sandwich immunoassay, one-step, against C-peptide calibration; proinsulin 50 ng/ml; 9103 on particles, labeled antibody PEP-001.
Assay [7] addresses human C-peptide (human). As to the kind of experiment: sandwich immunoassay, one-step; 9103 on particles, labeled antibody PEP-001.
Assay [8] deals with human proinsulin (human) (UniProt P01308). As to the kind of experiment: sandwich immunoassay, one-step, against C-peptide calibration; proinsulin 400 ng/ml; 9103 on particles, labeled antibody PEP-001.
Assay [9] has the same target. As to the kind of experiment: sandwich immunoassay, one-step, against C-peptide calibration; proinsulin 200 ng/ml; 9103 on particles, labeled antibody PEP-001.
For assay [10] the target is unchanged. As to the kind of experiment: sandwich immunoassay, two-step, against C-peptide calibration; proinsulin 400 ng/ml; 9103 on particles, labeled antibody 9101.
Assay [11] has as its target modified C-peptide (human C-peptide having Arg-Arg bound to its N-terminal and Lys-Arg bound to its C-terminal) (human). Kind of assay: sandwich immunoassay, two-step, against C-peptide calibration; modified C-peptide 5 ng/ml; 9103 on particles, labeled antibody PEP-001.
In assay [12] the target is human proinsulin (human) (UniProt P01308). Kind of assay: sandwich immunoassay, one-step, against C-peptide calibration; proinsulin 200 ng/ml; 9103 on particles, labeled antibody 9101.
For assay [13] the target is unchanged. Kind of assay: sandwich immunoassay, one-step, against C-peptide calibration; proinsulin 50 ng/ml; 9103 on particles, labeled antibody 9101.
The target is the same in assay [14]. As to the kind of experiment: sandwich immunoassay, two-step, against C-peptide calibration; proinsulin 200 ng/ml; 9103 on particles, labeled antibody 9101.
The target of assay [15] is human C-peptide (human). Kind of assay: sandwich immunoassay, two-step; 9103 on particles, labeled antibody 9101.
Assay [16] concerns the target human proinsulin (human) (UniProt P01308). As to the kind of experiment: sandwich immunoassay, two-step, against C-peptide calibration; proinsulin 50 ng/ml; 9103 on particles, labeled antibody PEP-001.
The target in assay [17] is modified C-peptide (human C-peptide having Arg-Arg bound to its N-terminal and Lys-Arg bound to its C-terminal) (human). Kind of assay: sandwich immunoassay, two-step, against C-peptide calibration; modified C-peptide 5 ng/ml; 9103 on particles, labeled antibody 9101.
Assay [18] addresses human proinsulin (human) (UniProt P01308). Kind of assay: sandwich immunoassay, one-step, against C-peptide calibration; proinsulin 400 ng/ml; 9103 on particles, labeled antibody 9101.
Assay [19] shares this target. Kind of assay: sandwich immunoassay, two-step, against C-peptide calibration; proinsulin 50 ng/ml; 9103 on particles, labeled antibody 9101.
For assay [20] the target is unchanged. Kind of assay: sandwich immunoassay, two-step, against C-peptide calibration; proinsulin 400 ng/ml; 9103 on particles, labeled antibody PEP-001.
The target is the same in assay [21]. As to the kind of experiment: sandwich immunoassay, two-step, against C-peptide calibration; proinsulin 200 ng/ml; PEP-001 on particles, labeled antibody 9103.
For assay [22], the target named is human C-peptide (human). Kind of assay: sandwich immunoassay, one-step; PEP-001 on particles, labeled antibody 9103.
For assay [23], the target named is human proinsulin (human) (UniProt P01308). As to the kind of experiment: sandwich immunoassay, one-step, against C-peptide calibration; proinsulin 200 ng/ml; PEP-001 on particles, labeled antibody 9103.
The target is the same in assay [24]. Kind of assay: sandwich immunoassay, two-step, against C-peptide calibration; proinsulin 400 ng/ml; PEP-001 on particles, labeled antibody 9103.
Assay [25] has as its target human C-peptide (human). As to the kind of experiment: sandwich immunoassay, one-step; PEP-001 on particles, labeled antibody CPT-3F-11.
In assay [26] the target is human C-peptide (human). Kind of assay: sandwich immunoassay, two-step; PEP-001 on particles, labeled antibody 9103.
Assay [27] has as its target modified C-peptide (human C-peptide having Arg-Arg bound to its N-terminal and Lys-Arg bound to its C-terminal) (human). Kind of assay: sandwich immunoassay, one-step, against C-peptide calibration; modified C-peptide 5 ng/ml; PEP-001 on particles, labeled antibody 9103.
Assay [28] concerns the target human proinsulin (human) (UniProt P01308). As to the kind of experiment: sandwich immunoassay, two-step, against C-peptide calibration; proinsulin 50 ng/ml; PEP-001 on particles, labeled antibody CPT-3-F11.
Assay [29] shares this target. As to the kind of experiment: sandwich immunoassay, one-step, against C-peptide calibration; proinsulin 50 ng/ml; PEP-001 on particles, labeled antibody 9103.
For assay [30], the target named is modified C-peptide (human C-peptide having Arg-Arg bound to its N-terminal and Lys-Arg bound to its C-terminal) (human). As to the kind of experiment: sandwich immunoassay, two-step, against C-peptide calibration; modified C-peptide 5 ng/ml; PEP-001 on particles, labeled antibody CPT-3F-11.
For assay [31] the target is unchanged. As to the kind of experiment: sandwich immunoassay, two-step, against C-peptide calibration; modified C-peptide 5 ng/ml; PEP-001 on particles, labeled antibody 9103.
The target in assay [32] is human proinsulin (human) (UniProt P01308). As to the kind of experiment: sandwich immunoassay, one-step, against C-peptide calibration; proinsulin 400 ng/ml; PEP-001 on particles, labeled antibody 9103.
Assay [33] shares this target. As to the kind of experiment: sandwich immunoassay, two-step, against C-peptide calibration; proinsulin 400 ng/ml; PEP-001 on particles, labeled antibody CPT-3-F11.
Assay [34] addresses human C-peptide (human). As to the kind of experiment: sandwich immunoassay, two-step; PEP-001 on particles, labeled antibody CPT-3F-11.
Assay [35] addresses human proinsulin (human) (UniProt P01308). As to the kind of experiment: sandwich immunoassay, two-step, against C-peptide calibration; proinsulin 50 ng/ml; PEP-001 on particles, labeled antibody 9103.
Assay [36] has as its target modified C-peptide (human C-peptide having Arg-Arg bound to its N-terminal and Lys-Arg bound to its C-terminal) (human). As to the kind of experiment: sandwich immunoassay, one-step, against C-peptide calibration; modified C-peptide 5 ng/ml; PEP-001 on particles, labeled antibody CPT-3F-11.
The target in assay [37] is human proinsulin (human) (UniProt P01308). Kind of assay: sandwich immunoassay, two-step, against C-peptide calibration; proinsulin 200 ng/ml; PEP-001 on particles, labeled antibody CPT-3-F11.
The target is the same in assay [38]. Kind of assay: sandwich immunoassay, one-step, against C-peptide calibration; proinsulin 50 ng/ml; PEP-001 on particles, labeled antibody CPT-3-F11.
Assay [39] has the same target. Kind of assay: sandwich immunoassay, one-step, against C-peptide calibration; proinsulin 200 ng/ml; PEP-001 on particles, labeled antibody CPT-3-F11.
The target is the same in assay [40]. Kind of assay: sandwich immunoassay, one-step, against C-peptide calibration; proinsulin 400 ng/ml; PEP-001 on particles, labeled antibody CPT-3-F11.

Sequence of human C-peptide (human) (peptide, as listed by the source): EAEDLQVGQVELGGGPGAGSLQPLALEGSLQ
Sequence of UniProt P01308 (P01308 25-110): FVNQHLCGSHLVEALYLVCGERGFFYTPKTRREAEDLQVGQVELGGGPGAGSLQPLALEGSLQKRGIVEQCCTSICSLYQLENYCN
Sequence of modified C-peptide (human C-peptide having Arg-Arg bound to its N-terminal and Lys-Arg bound to its C-terminal) (human) (peptide, as listed by the source): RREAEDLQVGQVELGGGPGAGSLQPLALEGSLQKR

With “anti-human C-peptide monoclonal antibody 9103 (Medix Biochemica)”, the 2S/N value with human C-peptide (human) [1] was 0.117 ng/mL; in the assay with human C-peptide (human) [3], 0.018 ng/mL; with human C-peptide (human) [7], 0.009 ng/mL; with human C-peptide (human) [15], 0.167 ng/mL. Besides, the Cross-reactivity (%) to Human Proinsulin in the assay with human proinsulin (human) [2] was over 30%; with human proinsulin (human) [6] it was 58%; in the assay with human proinsulin (human) [8], over 15%; with human proinsulin (human) [9], over 30%; with human proinsulin (human) [10] it was 6.8%; with human proinsulin (human) [12], 5.8%. Further, the Cross-reactivity (%) to Human Proinsulin in the assay with human proinsulin (human) [13] is 3.2%; with human proinsulin (human) [14] it was 4.4%; in the assay with human proinsulin (human) [16] it was 65.2%; in the assay with human proinsulin (human) [18], 6.9%; with human proinsulin (human) [19] it was 2.3%; with human proinsulin (human) [20], over 15%. For the same substance, the Cross-reactivity (%) to Modified C-peptide is 58.2% in assay [4], under 0.5% in [5], 38.6% in [11] and under 0.5% in assay [17].

Turning to “anti-human C-peptide monoclonal antibody PEP-001 (Dako)”, the Cross-reactivity (%) to Human Proinsulin with human proinsulin (human) [21] was over 30%; with human proinsulin (human) [23] it was over 30%; with human proinsulin (human) [24], over 15%; with human proinsulin (human) [28], over 120%; with human proinsulin (human) [29], over 120%; with human proinsulin (human) [32], over 15%. Besides, the Cross-reactivity (%) to Human Proinsulin with human proinsulin (human) [33] is over 15%; in the assay with human proinsulin (human) [35], over 120%; with human proinsulin (human) [37] it was over 30%; in the assay with human proinsulin (human) [38], over 120%; in the assay with human proinsulin (human) [39], over 30%; with human proinsulin (human) [40], over 15%. The 2S/N value with human C-peptide (human) [22] came to 0.781 ng/mL; with human C-peptide (human) [25], 0.191 ng/mL; in the assay with human C-peptide (human) [26], 0.591 ng/mL; with human C-peptide (human) [34], 0.271 ng/mL. The Cross-reactivity (%) to Modified C-peptide amounted to 35% in [27], 80% in assay [30], 38.3% in assay [31] and 98.5% in assay [36].
